Our source for the Kd values is patent US20260209331A1 (published 2026).

The target in experiment [1] is T1, P19 subunit of human IL-23 (IL23p19) (UniProt Q9NPF7 20-189).
T1 chain: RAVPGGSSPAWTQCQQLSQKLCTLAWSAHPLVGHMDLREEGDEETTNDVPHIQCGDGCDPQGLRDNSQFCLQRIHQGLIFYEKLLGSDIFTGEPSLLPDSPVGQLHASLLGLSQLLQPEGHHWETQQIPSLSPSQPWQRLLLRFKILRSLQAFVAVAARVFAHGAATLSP
The experiment is described as follows: SPR. A general note: Surface plasmon resonance follows binding to a sensor surface in real time, without labels.

Experiment [2] addresses T2, human TNF alpha (TNFα) (UniProt P01375 77-233). The experiment is described as follows: SPR.
In experiment [3] the target is T2, human TNF alpha (TNFα). As to the kind of experiment: SPR; pre-bound with IL23p19.

T2 sequence (P01375 77-233): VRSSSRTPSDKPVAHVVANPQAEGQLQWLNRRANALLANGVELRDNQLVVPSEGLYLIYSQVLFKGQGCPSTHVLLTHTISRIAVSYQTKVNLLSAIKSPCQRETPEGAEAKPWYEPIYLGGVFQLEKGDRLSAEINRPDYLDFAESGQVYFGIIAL

B1: BsAb #A6 (antibody)
chain 1: EIVLTQSPATLSLSPGERATLSCRASQSVYSYLAWYQQKPGQAPRLLIYDASNRATGIPARFSGSGSGTDFTLTISSLEPEDFAVYYCQQRSNWPPFTFGPGTKVDIKASTKGPSVFPLAPSSKSTSGGTAALGCLVKDYFPEPVTVSWNSGALTSGVHTFPAVLQSSGLYSLSSVVTVPSSSLGTQTYICNVNHKPSNTKVDKKV
chain 2: not shown
chain 3: not shown
chain 4: not shown
In general, Kd refers to the equilibrium constant for the complex coming apart. For the molecule B1, the Kd in experiment [1] came out at 0.04 nM; with human TNF alpha (TNFα) [2] it was 0.39 nM.

B2: BsAb #D3 (antibody)
chain 1: not shown
chain 2: DIQMTQSPSSLSASVGDRVTITCRTSENIYSYLAWYQQKPGKAPKLLIYNAKTLAEGVPSRFSGSGSGTDFTLTISSLQPEDFATYYCQHHYGIPFTFGQGTKVEIKRTVAAPSVFIFPPSDEQLKSGTASVVCLLNNFYPREAKVQWKVDNALQSGNSQESVTEQDSKDSTYSLSSTLTLSKADYEKHKVYACEVTHQGLSSPVTKSFNRGEC
B2: the Kd in experiment [1] turned out to be 0.2 nM; in the experiment with human TNF alpha (TNFα) [2], 0.16 nM; with human TNF alpha (TNFα) [3] it was 0.12 nM.

B3: BsAb #B7 (antibody)
chain 1: not shown
chain 2: DIQMTQSPSSLSASVGDRVTITCRTSENIYSYLAWYQQKPGKAPKLLIYNAKTLAEGVPSRFSGSGSGTDFTLTISSLQPEDFATYYCQHHYGIPFTFGQGTKVEIKRTVAAPSVFIFPPSDEQLKSGTASVVCLLNNFYPREAKVQWKVDNALQSGNSQESVTEQDSKDSTYSLSSTLTLSKADYEKHKVYACEVTHQGLSSPVTKSFNRGEC
Take B3: the dissociation constant (Kd) turned out to be 0.1 nM in experiment [1], 0.87 nM in the experiment with human TNF alpha (TNFα) [2] and 0.93 nM with human TNF alpha (TNFα) [3].

B4: BsAb #B8 (antibody)
chain 1: not shown
chain 2: DIQMTQSPSSLSASVGDRVTITCRTSENIYSYLAWYQQKPGKAPKLLIYNAKTLAEGVPSRFSGSGSGTDFTLTISSLQPEDFATYYCQHHYGIPFTFGQGTKVEIKRTVAAPSVFIFPPSDEQLKSGTASVVCLLNNFYPREAKVQWKVDNALQSGNSQESVTEQDSKDSTYSLSSTLTLSKADYEKHKVYACEVTHQGLSSPVTKSFNRGEC
Regarding B4, the figures for the Kd (in experiment [1]; in the experiment with human TNF alpha (TNFα) [2]; with human TNF alpha (TNFα) [3]) were 0.07 nM, 0.42 nM and 0.41 nM, respectively.

B5: BsAb #A8 (antibody)
chain 1: EIVLTQSPATLSLSPGERATLSCRASQSVYSYLAWYQQKPGQAPRLLIYDASNRATGIPARFSGSGSGTDFTLTISSLEPEDFAVYYCQQRSNWPPFTFGPGTKVDIKASTKGPSVFPLAPSSKSTSGGTAALGCLVKDYFPEPVTVSWNSGALTSGVHTFPAVLQSSGLYSLSSVVTVPSSSLGTQTYICNVNHKPSNTKVDKKV
chain 2: DIQMTQSPSSLSASVGDRVTITCRTSENIYSYLAWYQQKPGKAPKLLIYNAKTLAEGVPSRFSGSGSGTDFTLTISSLQPEDFATYYCQHHYGIPFTFGQGTKVEIKRTVAAPSVFIFPPSDEQLKSGTASVVCLLNNFYPREAKVQWKVDNALQSGNSQESVTEQDSKDSTYSLSSTLTLSKADYEKHKVYACEVTHQGLSSPVTKSFNRGEC
chain 3: not shown
chain 4: not shown
Regarding B5, the Kd came out at 0.08 nM in experiment [1] and 1.09 nM with human TNF alpha (TNFα) [2].

B6: BsAb #D4 (antibody)
chain 1: not shown
chain 2: DIQMTQSPSSLSASVGDRVTITCRTSENIYSYLAWYQQKPGKAPKLLIYNAKTLAEGVPSRFSGSGSGTDFTLTISSLQPEDFATYYCQHHYGIPFTFGQGTKVEIKRTVAAPSVFIFPPSDEQLKSGTASVVCLLNNFYPREAKVQWKVDNALQSGNSQESVTEQDSKDSTYSLSSTLTLSKADYEKHKVYACEVTHQGLSSPVTKSFNRGEC
As to B6, the dissociation constant Kd came to 0.11 nM in experiment [1], 0.49 nM in the experiment with human TNF alpha (TNFα) [2] and 0.41 nM in the experiment with human TNF alpha (TNFα) [3].

B7: BsAb #A7 (antibody)
chain 1: not shown
chain 2: DIQMTQSPSSLSASVGDRVTITCRTSENIYSYLAWYQQKPGKAPKLLIYNAKTLAEGVPSRFSGSGSGTDFTLTISSLQPEDFATYYCQHHYGIPFTFGQGTKVEIKRTVAAPSVFIFPPSDEQLKSGTASVVCLLNNFYPREAKVQWKVDNALQSGNSQESVTEQDSKDSTYSLSSTLTLSKADYEKHKVYACEVTHQGLSSPVTKSFNRGEC
chain 3: not shown
chain 4: not shown
Regarding B7, the results for the Kd (in experiment [1]; with human TNF alpha (TNFα) [2]) were 0.08 nM and 0.58 nM, respectively.

B8: BsAb #C8 (antibody)
chain 1: not shown
chain 2: EIVLTQSPATLSLSPGERATLSCRASQSVYSYLAWYQQKPGQAPRLLIYDASNRATGIPARFSGSGSGTDFTLTISSLEPEDFAVYYCQQRSNWPPFTFGPGTKVDIKGGGGSGGGGSGGGGSDIQMTQSPSSLSASVGDRVTITCRTSENIYSYLAWYQQKPGKAPKLLIYNAKTLAEGVPSRFSGSGSGTDFTLTISSLQPEDFATYYCQHHYGIPFTFGQGTKVEIKRTVAAPSVFIFPPSDEQLKSGTASVVCLLNNFYPREAKVQWKVDNALQSGNSQESVTEQDSKDSTYSLSSTLTLSKADYEKHKVYACEVTHQGLSSPVTKSFNRGEC
For the molecule B8, the Kd was determined as 1.66 nM in experiment [1] and 0.1 nM with human TNF alpha (TNFα) [2].
